From patent US20260347498 (published 2026)
Positions count from the first letter of the chain named. Values belong to the binder of their own block, whether it stands above or below them.

How the values were obtained:
[1] = molecular target: FcγRIIIa F158 (human, UniProt P08637); assay: SPR
[2] = molecular target: T1, human FcRn (human, UniProt P55899); assay: SPR, pH 6.0
[3] = molecular target: FcγRIIIa V158 (human, UniProt P08637); assay: SPR
[4] = molecular target: T2, FcγRIIb (human, UniProt P31994); assay: SPR
T2 chain: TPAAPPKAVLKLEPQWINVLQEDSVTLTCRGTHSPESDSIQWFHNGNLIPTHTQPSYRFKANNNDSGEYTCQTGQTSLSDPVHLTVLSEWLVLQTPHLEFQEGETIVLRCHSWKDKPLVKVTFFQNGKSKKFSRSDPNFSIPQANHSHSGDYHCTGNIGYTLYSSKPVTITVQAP

[5] = molecular target: T3, FcγRIIa R131 (human, UniProt P12318); assay: SPR
T3 chain: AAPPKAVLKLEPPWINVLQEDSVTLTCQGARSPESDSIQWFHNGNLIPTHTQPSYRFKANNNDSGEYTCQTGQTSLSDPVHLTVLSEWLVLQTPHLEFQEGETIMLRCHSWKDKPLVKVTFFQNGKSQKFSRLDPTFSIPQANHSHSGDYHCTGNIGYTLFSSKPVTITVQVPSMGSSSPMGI

[6] = molecular target: T4, FcγRIIa H131 (human, UniProt P12318); assay: SPR
T4 chain: T3 chain with R132H

[7] = molecular target: T5, FcγRIa (human, UniProt P12314); assay: SPR
T5 chain: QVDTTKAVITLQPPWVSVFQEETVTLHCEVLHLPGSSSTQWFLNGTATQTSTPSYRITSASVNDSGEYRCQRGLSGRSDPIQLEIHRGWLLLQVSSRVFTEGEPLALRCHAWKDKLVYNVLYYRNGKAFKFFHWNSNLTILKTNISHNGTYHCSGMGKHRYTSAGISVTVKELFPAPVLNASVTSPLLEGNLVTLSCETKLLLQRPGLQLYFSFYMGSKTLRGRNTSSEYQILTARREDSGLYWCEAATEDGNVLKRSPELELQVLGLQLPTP

[8] = molecular target: T1, human FcRn; assay: SPR, pH 7.4
[9] = molecular target: T6, human EpCAM on DiFi cells (human); assay: FACS, DiFi cells
T6 chain: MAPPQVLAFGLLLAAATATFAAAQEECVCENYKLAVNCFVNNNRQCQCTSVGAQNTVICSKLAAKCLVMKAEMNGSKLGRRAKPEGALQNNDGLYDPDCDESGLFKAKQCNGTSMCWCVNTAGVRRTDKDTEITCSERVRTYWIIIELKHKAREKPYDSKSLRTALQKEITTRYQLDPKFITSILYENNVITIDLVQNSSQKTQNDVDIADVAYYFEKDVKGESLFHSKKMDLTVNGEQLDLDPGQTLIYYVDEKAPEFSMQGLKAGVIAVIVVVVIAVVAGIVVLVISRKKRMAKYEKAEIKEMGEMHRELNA

[10] = molecular target: T7, human EpCAM extracellular domain (human); assay: BLI, 30C, monovalent
T7 chain: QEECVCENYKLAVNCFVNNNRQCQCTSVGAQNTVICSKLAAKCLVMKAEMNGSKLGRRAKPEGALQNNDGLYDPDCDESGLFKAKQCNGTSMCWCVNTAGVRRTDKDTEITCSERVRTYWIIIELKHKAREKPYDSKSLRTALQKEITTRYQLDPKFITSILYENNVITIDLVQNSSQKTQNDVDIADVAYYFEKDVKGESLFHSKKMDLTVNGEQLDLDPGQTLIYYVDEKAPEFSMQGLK

FcγRIIIa V158, sequence (P08637 17-208 F176V): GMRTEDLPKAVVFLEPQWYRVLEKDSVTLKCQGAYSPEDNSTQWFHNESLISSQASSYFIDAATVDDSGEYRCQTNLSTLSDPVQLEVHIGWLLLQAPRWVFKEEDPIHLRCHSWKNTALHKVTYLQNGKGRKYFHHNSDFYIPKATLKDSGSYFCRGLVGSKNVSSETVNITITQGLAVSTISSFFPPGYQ
FcγRIIIa F158, sequence (P08637 17-208): as the sequence (P08637 17-208 F176V) above, with V160F counted along it

- binding result [1]: no binding
- Kd [2]: 375 nM
- binding result [3]: no binding
- binding result [4]: no binding
- binding result [5]: no binding
- binding result [6]: no binding
- binding result [7]: no binding
- binding result [8]: no binding
B1: IgG1-CD137-009-HC7LC2-FEAR (antibody)
chain 1: EVQLVESGGGLVQPGRSLRLSCTASGFSLNDYWMSWVRQAPGKGLEWVGYIDVGGSLYYAASVKGRFTISRDDSKSIAYLQMNSLKTEDTAVYYCARGGLTYGFDLWGQGTLVTVSSASTKGPSVFPLAPSSKSTSGGTAALGCLVKDYFPEPVTVSWNSGALTSGVHTFPAVLQSSGLYSLSSVVTVPSSSLGTQTYICNVNHKPSNTKVDKRVEPKSCDKTHTCPPCPAPEFEGGPSVFLFPPKPKDTLMISRTPEVTCVVVAVSHEDPEVKFNWYVDGVEVHNAKTKPREEQYNSTYRVVSVLTVLHQDWLNGKEYKCKVSNKALPAPIEKTISKAKGQPREPQVYTLPPSREEMTKNQVSLTCLVKGFYPSDIAVEWESNGQPENNYKTTPPVLDSDGSFFLYSRLTVDKSRWQQGNVFSCSVMHEALHNHYTQKSLSLSPG
chain 2: DIVMTQSPSSLSASVGDRVTITCQASEDISSYLAWYQQKPGKAPKRLIYGASDLASGVPSRFSASGSGTDYTFTISSLQPEDIATYYCHYYATISGLGVAFGGGTKVEIKRTVAAPSVFIFPPSDEQLKSGTASVVCLLNNFYPREAKVQWKVDNALQSGNSQESVTEQDSKDSTYSLSSTLTLSKADYEKHKVYACEVTHQGLSSPVTKSFNRGEC

- binding result [9]: no binding
B2: bsIgG1-b12-FERL/CD137-009-HC7LC2-FEAR (antibody)
chain 1: QVQLVQSGAEVKKPGASVKVSCQASGYRFSNFVIHWVRQAPGQRFEWMGWINPYNGNKEFSAKFQDRVTFTADTSANTAYMELRSLRSADTAVYYCARVGPYSWDDSPQDNYYMDVWGKGTTVIVSSASTKGPSVFPLAPSSKSTSGGTAALGCLVKDYFPEPVTVSWNSGALTSGVHTFPAVLQSSGLYSLSSVVTVPSSSLGTQTYICNVNHKPSNTKVDKRVEPKSCDKTHTCPPCPAPEFERGPSVFLFPPKPKDTLMISRTPEVTCVVVDVSHEDPEVKFNWYVDGVEVHNAKTKPREEQYNSTYRVVSVLTVLHQDWLNGKEYKCKVSNKALPAPIEKTISKAKGQPREPQVYTLPPSREEMTKNQVSLTCLVKGFYPSDIAVEWESNGQPENNYKTTPPVLDSDGSFLLYSKLTVDKSRWQQGNVFSCSVMHEALHNHYTQKSLSLSPG
chain 2: EIVLTQSPGTLSLSPGERATFSCRSSHSIRSRRVAWYQHKPGQAPRLVIHGVSNRASGISDRFSGSGSGTDFTLTITRVEPEDFALYYCQVYGASSYTFGQGTKLERKRTVAAPSVFIFPPSDEQLKSGTASVVCLLNNFYPREAKVQWKVDNALQSGNSQESVTEQDSKDSTYSLSSTLTLSKADYEKHKVYACEVTHQGLSSPVTKSFNRGEC
chain 3: B1 chain 1
chain 4: B1 chain 2

- Kd [10]: 20 nM
B3: BisG1-b12-FEAL/EpCAM-A37-FEAR (EpCAM arm) (antibody, V domains shown)
VH: QVQLVQSGAEVKKPGSSVRVSCKASGGTFSSYAISWVRQAPGQGLEWMGGIIPIFGTANYAQKFQGRVTITADESTSTAYMELSSLRSEDTAVYYCARDPFLHYWGQGTLVTVSS
VL: EIELTQSPGTLSLSPGERATLSCRASQTISNNYLAWYQQKRGQAPRLLIYAASSRATGIPDRFSGTGSGTDFTLTISRLEPEDFAVYYCAQGELYPRQFGGGTKLEIK

- binding result [1]: no binding
- Kd [2]: 230 nM
- binding result [3]: no binding
- binding result [7]: no binding
- binding result [8]: no binding
B4: IgG1-EpCAM-A37-FERL (antibody)
chain 1: not shown
chain 2: EIELTQSPGTLSLSPGERATLSCRASQTISNNYLAWYQQKRGQAPRLLIYAASSRATGIPDRFSGTGSGTDFTLTISRLEPEDFAVYYCAQGELYPRQFGGGTKLEIKRTVAAPSVFIFPPSDEQLKSGTASVVCLLNNFYPREAKVQWKVDNALQSGNSQESVTEQDSKDSTYSLSSTLTLSKADYEKHKVYACEVTHQGLSSPVTKSFNRGEC

- binding result [9]: no binding
B5: bsIgG1-b12-FERL/b12-FEAR (antibody)
chain 1: B2 chain 1
chain 2: B2 chain 2
chain 3: B2 chain 1 with R246G, D275A, L415F, K419R
chain 4: B2 chain 2

- Kd [10]: 3.2 nM
B6: BisG2amm-EpCAM-323-A3-AALT/m4-1BB-3H3-AAKR (EpCAM arm) (antibody, V domains shown)
VH: QIQLVQSGPELKKPGETVKISCKASGYTFTNYGMNWVRQASGEGLKWMGWINTYTGEPTYGEDFKGRFAFSLETSASTAYLQINNLKNEDTATYFCARFGNYVDYWGQGTTLTVSS
VL: DIVMTQAAFSNPVTLGTSASISCRSSKNLLHSNGITYLYWYLQKPGQSPHLLIYQMSNLASGVPDRFSSSGSGTDFTLRISRVEAEDVGVYYCAQNLEIPRTFGGGTKLEIKR
